Reference: the supplement of paper PMC7877785
± gives the uncertainty stated by the source.

Assay: self-splicing fitness, log relative to wild type (ln ratio); higher = more splicing; Tetrahymena group I intron in knt gene, E. coli kanamycin selection, DiMSum; sequences stand for … in CUCUCU…GGAGGGAAAAGUUAUCAGGCAUGCACCUGGUAGCUAGUCUUUAAACCAAUAGAUUGCAUCGGUUUAAAAGGCAAGACCGUCAAAUUGCGGGAAAGGGGUCAACAGCCGUUCAGUACCAAGUCUCAGGGGAAACUUUGAGAUGGCCUUGCAAAGGGUAUGGUAAUAAGCUGACGGACAUGGUCCUAACCACGCAGCCAAGUCCUAAGUCAACAGAUCUUCUGUUGAUAUGGAUGCAGUUCACAGACUAAAUGUCGGUCGGGGAAGAUGUAUUCUUCUCAUAAGAUAUAGUCGGACCUCUCCUUAAUGGGAGCUAGCGGAUGAAGUGAUGCAACACUGGAGCCGCUGGGAACUAAUUUGUAUGCGAAAGUAUAUUGAUUAGUUUUGGAGUACUCGUGGUCG
Outline: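 A randomised library covering all eight P1ex-region intron nucleotides was built with the intron in the knt kanamycin-resistance gene on pET-22b(+) and held in E. coli BL21(DE3). Cells were grown overnight at 37°C or 30°C on LB agar, with or without 25 μg/mL kanamycin, plus 100 μg/mL carbenicillin, 50 μM IPTG and 0.2% rhamnose, and pooled colonies were amplicon-sequenced on an Illumina HiSeq 2500. DiMSum fitness is the error-weighted combination of wild-type-normalised replicate fold changes, kanamycin versus none.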

| Sequence | self-splicing fitness (ln) (30 °C) | self-splicing fitness (ln) (37 °C) |
| --- | --- | --- |
| AGCCAGCAAUAUUACGACCU | 0.00818 ± 0.069 | 0.00767 ± 0.083 |
| UGUUAGCAAUAUUACGAUCU | -0.736 ± 0.088 | -0.148 ± 0.12 |
| UUGAAGCAAUAUUACGUUAA | -1.47 ± 0.075 | -0.311 ± 0.11 |
| GUAAAGCAAUAUUACGAGAU | -2.12 ± 0.12 | -1.99 ± 0.15 |
| AUUGAGCAAUAUUACGAGAC |  | -0.883 ± 0.45 |
| GUCGAGCAAUAUUACGCGAU | -3.36 ± 0.27 |  |
| CGGUAGCAAUAUUACGUAGU | -2.59 ± 0.13 | -1.34 ± 0.16 |
| UACUAGCAAUAUUACGUUUU | -3.49 ± 0.19 | -1.82 ± 0.15 |
| GUUUAGCAAUAUUACGCUAA | -3.38 ± 0.32 | -1.4 ± 0.21 |
| ACAAAGCAAUAUUACGCUUA | -2.37 ± 0.12 | -1.71 ± 0.13 |
| CCGGAGCAAUAUUACGAAUG | -1.1 ± 0.074 | 0.21 ± 0.097 |
| UUUAAGCAAUAUUACGAUUU | -1.92 ± 0.16 | -0.754 ± 0.13 |
| UUUAAGCAAUAUUACGCUUA |  | -3.03 ± 0.33 |
| GACUAGCAAUAUUACGAAGU | -3.08 ± 0.17 | -1.82 ± 0.22 |
| UUUUAGCAAUAUUACGCCCG | -0.629 ± 0.33 |  |
| GUAAAGCAAUAUUACGCGAA | -0.868 ± 0.08 | -1.25 ± 0.1 |
| CCCUAGCAAUAUUACGCAUA | -3.33 ± 0.27 | -1.99 ± 0.2 |
| UUUAAGCAAUAUUACGACCU | -1.72 ± 0.21 | -1.3 ± 0.18 |
| AGGGAGCAAUAUUACGGGUG | -4.12 ± 0.2 | -2.54 ± 0.29 |
| UUAUAGCAAUAUUACGGCCC |  | -0.921 ± 0.39 |
| CGCAAGCAAUAUUACGAUCC | -1.71 ± 0.12 | -1.36 ± 0.19 |
| GCUGAGCAAUAUUACGUGAG | -1.73 ± 0.11 | -1.28 ± 0.095 |

| Sequence | self-splicing fitness (ln) (30 °C) | self-splicing fitness (ln) (37 °C) |
| --- | --- | --- |
| GACUAGCAAUAUUACGUUGU | -3.19 ± 0.14 | -2.17 ± 0.12 |
| CCUGAGCAAUAUUACGAGGC | -3.18 ± 0.43 | -1.54 ± 0.26 |
| UGGGAGCAAUAUUACGUGCU | -2.65 ± 0.32 | -1.05 ± 0.25 |
| UUAGAGCAAUAUUACGCUAC | -2.9 ± 0.41 |  |
| ACUUAGCAAUAUUACGGCAC | -1.79 ± 0.11 | -1.07 ± 0.14 |
| GUGCAGCAAUAUUACGCGCU | -3.16 ± 0.48 | -1.77 ± 0.36 |
| AUUUAGCAAUAUUACGGUCG | -1.98 ± 0.15 | -1.38 ± 0.22 |
| CCAUAGCAAUAUUACGAGCU | -3.04 ± 0.36 | -2.9 ± 0.47 |
| AGGUAGCAAUAUUACGUUCA | -0.556 ± 0.014 | -0.256 ± 0.033 |
| CACCAGCAAUAUUACGGGGG | -3.36 ± 0.11 | -2.64 ± 0.18 |
| UGGCAGCAAUAUUACGAGAA | -1.11 ± 0.32 | -1.62 ± 0.31 |
| AAUCAGCAAUAUUACGCAAU | -0.895 ± 0.067 | -0.0563 ± 0.093 |
| ACCUAGCAAUAUUACGCAGC | -1.43 ± 0.095 | -1.46 ± 0.12 |
| UUUUAGCAAUAUUACGACCA | -0.399 ± 0.34 | -0.577 ± 0.37 |
| GUUGAGCAAUAUUACGUAUC | -2.91 ± 0.15 | -1.15 ± 0.15 |
| ACACAGCAAUAUUACGCAUG | -1.04 ± 0.075 | -0.692 ± 0.081 |
| CCUUAGCAAUAUUACGUAAC | -4.41 ± 0.22 | -2.41 ± 0.18 |
| ACUUAGCAAUAUUACGAUGA | -0.609 ± 0.094 | -1.2 ± 0.1 |
| GACUAGCAAUAUUACGCAGA | -2.34 ± 0.16 | -1.62 ± 0.17 |
| GAUGAGCAAUAUUACGAGAG |  | -3.01 ± 0.29 |
| GGUCAGCAAUAUUACGCGUG | -0.989 ± 0.077 | -0.272 ± 0.083 |
| AAGUAGCAAUAUUACGGGUU | -1.46 ± 0.13 | -1.55 ± 0.17 |
